In US20190194329A1 (AbbVie / Abbott, published 2019):

T1: His-tagged ECD of mouse 4-1BB (mouse, UniProt P20334 24-187)
T1 construct: also called murine 4-1BB; mu4-1BB; not shown: His tag
T1 sequence: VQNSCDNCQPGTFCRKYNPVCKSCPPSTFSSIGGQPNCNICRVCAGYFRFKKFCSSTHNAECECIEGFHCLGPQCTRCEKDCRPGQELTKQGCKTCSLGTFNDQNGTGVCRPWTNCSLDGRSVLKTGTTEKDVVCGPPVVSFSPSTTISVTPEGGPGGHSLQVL

T2: His-tagged ECD of cynomolgus monkey 4-1BB (cynomolgus monkey, UniProt Q07011 24-186 (human entry))
T2 construct: also called cynomolgus 4-1BB; cyno 4-1BB; not shown: His tag
T2 chain: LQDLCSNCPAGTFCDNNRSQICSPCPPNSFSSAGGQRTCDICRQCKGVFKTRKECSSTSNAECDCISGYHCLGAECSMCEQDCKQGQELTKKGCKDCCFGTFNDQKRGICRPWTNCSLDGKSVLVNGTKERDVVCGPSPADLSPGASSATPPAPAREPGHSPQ


Tests used:
[1] = molecular target: T1, His-tagged ECD of mouse 4-1BB; test: SPR (Biacore), captured antibody, His-tagged ECD analyte
Procedure: (§1) The binding kinetics of the 4-1BB antibodies for target proteins were determined by using a Biacore T200 surface plasmon resonance system (BlAcore, GE Healthcare, Piscataway, N.J.). Polyclonal goat anti-human Fc antibody (Pierce 31125) was first immobilized to the biosensor surface using standard amine coupling reagents (N-ethyl-N′-dimethylamino-propylcarbodiimide, EDC; N-hydroxysuccinimide, NHS; and ethanolamine HCl, pH 8.5), followed by the capture of antibodies on parallel surfaces at a low flow rate of 10 μL/min. No capture of the antibody was made on the reference surface to serve as a negative control. Antigen (His-tagged ECD of 4-1BB derived from human, cynomolgus monkey, or mouse) was injected to all flow cells at a flow rate of 80 μL/min for three minutes to monitor association followed by a 10-20-minute flow of HBS-EP+running buffer (10 mM HEPES, 150 mM sodium chloride, 3mM EDTA, 0.05% Tween-20, pH 7.5) to monitor the dissociation phase. […] The surface was regenerated by two consecutive injections of 10 mM glycine (pH 1.5) at a flow rate of 60 μL/min at the end of each cycle. Binding data were fit to the 1:1 Langmuir model to extract binding constants from the BlAevaluate software. Double referencing was applied in each analysis to eliminate background responses from the reference surface and buffer only control.

[2] = molecular target: T3, His-tagged ECD of human 4-1BB (human, UniProt Q07011 24-184); test: as above
T3 construct: also called hu4-1BB; 4-1BB ECD; not shown: His tag
Procedure: as §1

[3] = molecular target: T2, His-tagged ECD of cynomolgus monkey …; test: as above
Procedure: as §1

[4] = molecular target: T3, His-tagged ECD of human 4-1BB; test: SPR (Biacore)

Molecule | Kd [1] | koff [1] | kon [1] | Kd [2] | koff [2] | kon [2] | Kd [3] | koff [3] | kon [3] | binding result [4] | binding result [1]
MOR-7480.1-hIgG2 (antibody, V domains shown) VH: EVQLVQSGAEVKKPGESLRISCKGSGYSFSTYWISWVRQMPGKGLEWMGKIYPGDSYTNYSPSFQGQVTISADKSISTAYLQWSSLKASDTAMYYCARGYGIFDYWGQGTLVTVSS VL: SYELTQPPSVSVSPGQTASITCSGDNIGDQYAHWYQQKPGQSPVLVIYQDKNRPSGIPERFSGSNSGNTATLTISGTQAMDEADYYCATYTGFGSLAVFGGGTKLTVLG |  |  |  |  |  |  |  |  |  |  | no binding (tested: antigen between 100 nM and 3.7 nM)
hu107-1-hIgG1 (antibody, V domains shown, 312 is written here; Human IgG1 constant region bearing L234A and L235A; also called hu107.1x.1x) VH: EVQLVQSGAEVKKPGSSVKVSCKASDYTFNDYWVSWVRQAPGQGLEWIGEIYPNSGATNFNGKFRGRATLTVDNSASTAYMELSSLRSEDTAVYYCTREYTRDWFAYWGQGTLVTVSS VL: DVVLTQSPLSLPVTLGQPASISCRSSQSLLDSDGNTYLYWFQQRPGQSPRRLIYLVSNLGSGVPDRFSGSGSGTDFTLKISRVEAEDVGVYYCMQPTHAPYTFGQGTKLEIKR |  |  |  |  |  |  | 0.13 nM | 4e-05 s⁻¹ | 310000 M⁻¹ s⁻¹ |  | 
Mouse TABBY9 with mouse IgG1 constant (antibody, V domains shown, Mouse IgG1; also called TABBY9-mIgG1) VH: QVQLKQSGPGLVQPSQSLSITCTVSGFSLTSYGVHWVRQSPGKGLEWLGMIWSGGSTDYNAAFISRLSISKDNSKSQVFFKMNSLQADDTALYFCASYGGFYETMDYWGQGTSVTVSS VL: DIQMTQTTSSLSASLGDRITISCRASQDISNYLNWYQRKPDGTVKLLIYYTSRLHSGVPSRFSGSGSGRDYSLTISNLEQEDIATYFCQQGNTLPYTFGGGTKLEIK |  |  |  |  |  |  |  |  |  | binds | 
20H4.9-hIgG4 (antibody, V domains shown) VH: QVQLQQWGAGLLKPSETLSLTCAVYGGSFSGYYWSWIRQSPEKGLEWIGEINHGGYVTYNPSLESRVTISVDTSKNQFSLKLSSVTAADTAVYYCARDYGPGNYDWYFDLWGRGTLVTVSS VL: EIVLTQSPATLSLSPGERATLSCRASQSVSSYLAWYQQKPGQAPRLLIYDASNRATGIPARFSGSGSGTDFTLTISSLEPEDFAVYYCQQRSNWPPALTFGGGTKVEIKR |  |  |  | 4.9 nM | 0.0021 s⁻¹ | 420000 M⁻¹ s⁻¹ |  |  |  |  | no binding (tested: antigen between 100 nM and 3.7 nM)
hu106-4-hIgG4 (antibody, V domains shown, Human IgG4 constant region with the S228P mutation; also called hu106.1x.3x) VH: EVQLVQSGAEVKKPGSSVKVSCKASGYTFTSYYIYWVRQAPGQGLEWIGNIWPGNGGTFYGEKFMGRATFTADTSTSTAYMELSSLRSEDTAVYYCARRPDYSGDDYFDYWGQGTLVTVSS VL: SVELTQPPSVSVSPGQTARITCKLNSGNIGSYYVHWYQQKPGQAPVTMIYRDDKRPDGIPERFSGSSDSSSNSAFLTISGVQAEDEADYYCHSYDSTITPVFGGGTKLTVL | 9.3 nM | 0.015 s⁻¹ | 1.6e+06 M⁻¹ s⁻¹ | 200 nM | 0.042 s⁻¹ | 210000 M⁻¹ s⁻¹ | 180 nM | 0.052 s⁻¹ | 280000 M⁻¹ s⁻¹ |  | 
hu106-7-hIgG4 (antibody, V domains shown, Human IgG4 constant region with the S228P mutation; also called hu106.1y.3x) VH: EVQLVESGGGLVQPGGSLRLSCAASGYTFTSYYIYWVRQAPGKGLEWIGNIWPGNGGTFYGEKFMGRATFSADTSKNTAYLQMNSLRAEDTAVYYCARRPDYSGDDYFDYWGQGTLVTVSS VL: SVELTQPPSVSVSPGQTARITCKLNSGNIGSYYVHWYQQKPGQAPVTMIYRDDKRPDGIPERFSGSSDSSSNSAFLTISGVQAEDEADYYCHSYDSTITPVFGGGTKLTVL | 17 nM | 0.037 s⁻¹ | 2.2e+06 M⁻¹ s⁻¹ | 420 nM | 0.047 s⁻¹ | 110000 M⁻¹ s⁻¹ |  |  |  |  | 
hu106-1-hIgG1 (antibody, V domains shown, 310 is written here; Human IgG1 constant region bearing L234A and L235A; also called hu106.1x.1x) VH: EVQLVQSGAEVKKPGSSVKVSCKASGYTFTSYYIYWVRQAPGQGLEWIGNIWPGNGGTFYGEKFMGRATFTADTSTSTAYMELSSLRSEDTAVYYCARRPDYSGDDYFDYWGQGTLVTVSS VL: NVMLTQPHSVSESPGKTVTISCKLNSGNIGSYYVHWYQQRPGSSPTTMIYRDDKRPDGVPDRFSGSIDSSSNSASLTISGLKTEDEADYYCHSYDSTITPVFGGGTKLTVLG |  |  |  |  |  |  | 170 nM | 0.1 s⁻¹ | 620000 M⁻¹ s⁻¹ |  | 

Further lines, with some results ahead:

Kd [1] | koff [1] | kon [1] | Kd [2] | koff [2] | kon [2] | Kd [3] | koff [3] | kon [3] | binding result [4] | Molecule | binding result [1]
0.98 nM | 0.0057 s⁻¹ | 5.8e+06 M⁻¹ s⁻¹ |  |  |  |  |  |  |  | literature anti-4-1BB antibody 3H3 | 
3.9 nM | 0.008 s⁻¹ | 2.1e+06 M⁻¹ s⁻¹ |  |  |  |  |  |  |  | literature anti-4-1BB antibody 1D8 | 
4 nM |  | 330000 M⁻¹ s⁻¹ | 0.58 nM | 8e-05 s⁻¹ | 140000 M⁻¹ s⁻¹ | 0.22 nM | 5.2e-05 s⁻¹ |  |  | hu107-1-hIgG4 (antibody, V domains shown, Human IgG4 constant region with the S228P mutation; also called hu107.1x.1x) VH: EVQLVQSGAEVKKPGSSVKVSCKASDYTFNDYWVSWVRQAPGQGLEWIGEIYPNSGATNFNGKFRGRATLTVDNSASTAYMELSSLRSEDTAVYYCTREYTRDWFAYWGQGTLVTVSS VL: DVVLTQSPLSLPVTLGQPASISCRSSQSLLDSDGNTYLYWFQQRPGQSPRRLIYLVSNLGSGVPDRFSGSGSGTDFTLKISRVEAEDVGVYYCMQPTHAPYTFGQGTKLEIK | 
5.1 nM | 0.0016 s⁻¹ | 320000 M⁻¹ s⁻¹ | 0.81 nM | 0.00011 s⁻¹ | 130000 M⁻¹ s⁻¹ | 0.29 nM | 7e-05 s⁻¹ | 240000 M⁻¹ s⁻¹ |  | hu107-3-hIgG4 (antibody, V domains shown, Human IgG4 constant region with the S228P mutation; also called hu107.1x.1y) VH: EVQLVQSGAEVKKPGSSVKVSCKASDYTFNDYWVSWVRQAPGQGLEWIGEIYPNSGATNFNGKFRGRATLTVDNSASTAYMELSSLRSEDTAVYYCTREYTRDWFAYWGQGTLVTVSS VL: DVQLTQSPSSLSASVGDRVTITCRSSQSLLDSDGNTYLYWFQQKPGKAPKRLIYLVSNLGSGVPSRFSGSGSGTDFTLTISSLQPEDFATYYCMQPTHAPYTFGQGTKVEIK | 
